Data taken from paper PMC10491584, “Structural convergence endows nuclear transport receptor Kap114p with a transcriptional repressor function toward TATA-binding protein” (Nature Communications, 2023).
Substitutions are numbered along the chain they refer to. In names and notes the source's numbering stands. Blank lines part the entries; values can stand above or below the binder they belong to.

Experiments:
Settings in all cases: both partners purified
Kap114p (wild type) [1] = target: T1, Kap114p (wild type) (S. cerevisiae, UniProt P53067 1-1004); experiment: ITC; MicroCal iTC200, 25 °C, 20 mM HEPES pH 7.4, 150 mM NaCl; 25 or 50 μM wild type or mutant Kap114p in the cell, 250 or 500 μM wild-type or mutant yTBP^C in the syringe; triplicate
T1 construct: Kap114p, S. cerevisiae, full length, amplified from total genomic DNA; GST tag removed with PreScission protease; also called karyopherin-β Kap114p; source: E. coli Rosetta, purified (GST resin, MonoQ, Superdex 200); not shown: GST, N-terminal, cleaved
T1 sequence (looked up): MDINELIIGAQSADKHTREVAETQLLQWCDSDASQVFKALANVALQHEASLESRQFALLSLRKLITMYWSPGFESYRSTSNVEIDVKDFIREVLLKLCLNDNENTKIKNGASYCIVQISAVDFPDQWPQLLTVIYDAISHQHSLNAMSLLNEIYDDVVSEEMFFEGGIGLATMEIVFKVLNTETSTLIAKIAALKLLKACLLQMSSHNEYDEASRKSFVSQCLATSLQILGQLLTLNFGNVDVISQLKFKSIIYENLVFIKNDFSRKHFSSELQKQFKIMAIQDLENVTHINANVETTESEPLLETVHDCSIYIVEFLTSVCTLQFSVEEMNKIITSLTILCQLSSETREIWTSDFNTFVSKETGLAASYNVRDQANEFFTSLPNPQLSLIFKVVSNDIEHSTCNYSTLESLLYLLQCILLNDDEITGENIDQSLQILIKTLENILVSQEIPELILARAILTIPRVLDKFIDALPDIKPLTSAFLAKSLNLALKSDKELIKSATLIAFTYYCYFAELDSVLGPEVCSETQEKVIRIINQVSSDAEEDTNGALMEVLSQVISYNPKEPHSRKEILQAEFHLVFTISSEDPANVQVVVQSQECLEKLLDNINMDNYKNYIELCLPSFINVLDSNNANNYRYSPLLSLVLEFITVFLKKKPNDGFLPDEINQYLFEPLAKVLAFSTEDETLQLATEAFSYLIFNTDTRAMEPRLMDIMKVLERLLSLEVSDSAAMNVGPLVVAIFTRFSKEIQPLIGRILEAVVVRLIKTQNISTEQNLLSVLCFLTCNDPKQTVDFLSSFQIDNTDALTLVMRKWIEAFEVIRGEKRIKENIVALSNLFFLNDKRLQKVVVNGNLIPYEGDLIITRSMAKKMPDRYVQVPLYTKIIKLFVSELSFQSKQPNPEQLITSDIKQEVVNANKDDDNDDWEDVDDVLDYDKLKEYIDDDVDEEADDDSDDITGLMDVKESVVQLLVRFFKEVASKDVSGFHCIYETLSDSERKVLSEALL

Kap114pΔ(932-941) = target: T2, Kap114pΔ(932-941) (S. cerevisiae, UniProt P53067 1-1004, Δ(932-941)); experiment: as above
T2 construct: Kap114p, S. cerevisiae, full length with residues 932-941 deleted; also called Kap114p deletion mutant lacking the α-helix of the HEAT19 loop (a.a. 932-941); source: E. coli Rosetta, purified (GST resin, MonoQ, Superdex 200); not shown: GST, N-terminal, cleaved
T2 sequence (looked up): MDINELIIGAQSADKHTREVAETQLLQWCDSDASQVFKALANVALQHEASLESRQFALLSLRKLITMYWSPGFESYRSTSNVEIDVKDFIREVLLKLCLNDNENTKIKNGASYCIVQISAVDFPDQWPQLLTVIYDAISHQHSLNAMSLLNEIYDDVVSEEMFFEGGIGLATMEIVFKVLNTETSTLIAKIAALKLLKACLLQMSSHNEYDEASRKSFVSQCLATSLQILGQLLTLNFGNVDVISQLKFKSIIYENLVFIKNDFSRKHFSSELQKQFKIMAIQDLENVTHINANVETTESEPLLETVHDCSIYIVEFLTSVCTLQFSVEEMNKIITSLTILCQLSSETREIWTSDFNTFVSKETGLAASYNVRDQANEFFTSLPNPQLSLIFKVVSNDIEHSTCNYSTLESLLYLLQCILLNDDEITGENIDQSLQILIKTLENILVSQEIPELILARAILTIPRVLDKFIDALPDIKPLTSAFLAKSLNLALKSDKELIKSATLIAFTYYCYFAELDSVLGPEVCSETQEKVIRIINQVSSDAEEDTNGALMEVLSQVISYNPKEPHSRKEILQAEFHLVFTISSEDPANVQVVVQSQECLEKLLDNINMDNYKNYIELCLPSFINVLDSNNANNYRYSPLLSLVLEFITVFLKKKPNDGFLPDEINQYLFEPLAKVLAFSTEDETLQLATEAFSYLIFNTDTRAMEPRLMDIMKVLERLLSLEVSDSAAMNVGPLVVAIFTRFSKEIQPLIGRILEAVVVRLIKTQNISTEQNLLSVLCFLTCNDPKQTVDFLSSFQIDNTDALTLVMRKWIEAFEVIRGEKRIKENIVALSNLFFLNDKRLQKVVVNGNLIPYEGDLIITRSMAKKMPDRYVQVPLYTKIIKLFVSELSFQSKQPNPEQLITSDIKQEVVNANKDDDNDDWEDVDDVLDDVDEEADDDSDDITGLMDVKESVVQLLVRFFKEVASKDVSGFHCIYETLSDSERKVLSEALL

Kap95p = target: T3, Kap95p (S. cerevisiae, UniProt Q06142 1-861); experiment: ITC; Kap95p with wild type or R141A yTBP^C; which protein was in the cell is not told for Kap95p; n = 3
T3 construct: Kap95p, S. cerevisiae, full length; The purification paragraph is headed for Kap114p proteins; that Kap95p was treated alike is surmised; source: E. coli, GST-tagged construct in modified pGEX6p1; purification told for the GST-tagged proteins; not shown: GST, N-terminal, cleaved
T3 sequence (looked up): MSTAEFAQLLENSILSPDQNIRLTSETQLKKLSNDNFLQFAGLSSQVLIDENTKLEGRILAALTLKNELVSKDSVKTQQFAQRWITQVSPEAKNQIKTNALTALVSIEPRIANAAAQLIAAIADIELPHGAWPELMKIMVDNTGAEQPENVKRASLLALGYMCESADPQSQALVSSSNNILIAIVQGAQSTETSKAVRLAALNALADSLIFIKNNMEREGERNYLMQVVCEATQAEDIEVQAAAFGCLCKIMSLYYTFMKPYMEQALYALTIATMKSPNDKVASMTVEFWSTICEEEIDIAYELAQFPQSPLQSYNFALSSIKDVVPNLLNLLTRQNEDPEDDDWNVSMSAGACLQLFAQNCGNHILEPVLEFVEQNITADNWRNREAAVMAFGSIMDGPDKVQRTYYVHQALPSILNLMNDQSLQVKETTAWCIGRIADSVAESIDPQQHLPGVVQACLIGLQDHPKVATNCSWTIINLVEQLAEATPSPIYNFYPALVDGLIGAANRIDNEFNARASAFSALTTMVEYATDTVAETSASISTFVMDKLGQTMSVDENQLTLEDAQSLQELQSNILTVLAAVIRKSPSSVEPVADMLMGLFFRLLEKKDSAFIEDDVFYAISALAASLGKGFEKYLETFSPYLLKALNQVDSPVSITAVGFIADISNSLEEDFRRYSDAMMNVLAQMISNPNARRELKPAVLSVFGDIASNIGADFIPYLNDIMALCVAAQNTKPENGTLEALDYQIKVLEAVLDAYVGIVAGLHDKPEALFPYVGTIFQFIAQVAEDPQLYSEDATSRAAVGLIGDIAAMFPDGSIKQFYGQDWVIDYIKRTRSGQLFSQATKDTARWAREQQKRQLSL

Kap114p (wild type) [2] = target: T1, Kap114p (wild type); experiment: cryo-EM structure; components purified from E. coli, mixed at an equal molar ratio, cross-linked with 0.01% glutaraldehyde, purified by SEC; Titan Krios 300 keV
Kap114p(Y370A) = target: T4, Kap114p(Y370A) (S. cerevisiae, UniProt P53067 1-1004, Y370A); experiment: ITC; MicroCal iTC200, 25 °C, 20 mM HEPES pH 7.4, 150 mM NaCl; 25 or 50 μM wild type or mutant Kap114p in the cell, 250 or 500 μM wild-type or mutant yTBP^C in the syringe; triplicate
T4 construct: Kap114p, S. cerevisiae, full length, point mutant Y370A; source: E. coli Rosetta, purified (GST resin, MonoQ, Superdex 200); not shown: GST, N-terminal, cleaved
T4 sequence (looked up): T1 sequence (looked up) with Y370A

- Kd (Kap114p (wild type) [1]): ~1 nM
- Kd (Kap114pΔ(932-941)): ~158 nM
- Kd (Kap95p): ~8.1 µM
- stoichiometry N (Kap114p (wild type) [2]): 1
B1: core domain of yeast TATA-box binding protein (yTBP^C), wild type (domain or fragment, S. cerevisiae, UniProt P13393 61-240, looked up)
chain: SGIVPTLQNIVATVTLGCRLDLKTVALHARNAEYNPKRFAAVIMRIREPKTTALIFASGKMVVTGAKSEDDSKLASRKYARIIQKIGFAAKFTDFKIQNIVGSCDVKFPIRLEGLAFSHGTFSSYEPELFPGLIYRMVKPKIVLLIFVSGKIVLTGAKQREEIYQAFEAIYPVLSEFRKM
notes: 61-240; His tag removed with PreScission protease; also called yTBP core domain; source: E. coli Rosetta, purified (Ni-NTA, HiTrap SP, Superdex 75); not shown: His6, N-terminal, cleaved

- Kd (Kap114p(Y370A)): ~1500 nM
B2: yTBP^C (N91A) (domain or fragment, S. cerevisiae, UniProt P13393 61-240, looked up)
chain: B1 chain with N31A
notes: 61-240, point mutant N91A; also called yTBP(N91A); source: E. coli Rosetta, purified (Ni-NTA, HiTrap SP, Superdex 75); not shown: His6, N-terminal, cleaved
